{"source": "paper doi:10.1101/493668", "about": "(bioRxiv, 2019)", "key": {"[1]": {"target": "CsgA, major curlin subunit, recombinant with C-terminal His6-tag (Escherichia coli) (UniProt P28307)", "assay": "SEC-MALS"}, "[2]": {"target": "the molecule itself", "assay": "crystal structure"}, "[3]": {"target": "the molecule itself", "assay": "ThT fibrillation kinetics"}, "[4]": {"target": "the molecule itself", "assay": "ThT fibrillation kinetics", "remark": "listed apart in the source"}}, "note": "No end group written: not given here."}
{"molecule": "CsgA, major curlin subunit, recombinant with C-terminal His6-tag (from UniProt P28307 21-151) (natural protein)", "values": [{"measurement": "stoichiometry N", "setting": "[1]", "result": 6}]}
{"molecule": "H-LNIYQY-OH", "note": "[CsgA segment 45LNIYQY50 (R1 repeat), unmodified termini]", "values": [{"measurement": "binding result", "setting": "[2]", "result": "binds"}]}
{"molecule": "Ac-LNIYQY-NH2", "note": "[CsgA segment 45LNIYQY50 (R1 repeat), capped termini]", "values": [{"measurement": "binding result", "setting": "[3]", "result": "binds"}]}
{"molecule": "Ac-IYQYGG-NH2", "note": "[CsgA segment 47IYQYGG52 (R1 repeat), capped termini]", "values": [{"measurement": "binding result", "setting": "[3]", "result": "binds"}]}
{"molecule": "Ac-VTQVGF-NH2", "note": "[CsgA segment 137VTQVGF142 (R5 repeat), capped termini]", "values": [{"measurement": "binding result", "setting": "[3]", "result": "binds"}]}
{"molecule": "LNIYQY-NH2", "note": "[CsgA segment 45LNIYQY50 (R1 repeat), capped at the C-terminus]", "values": [{"measurement": "binding result", "setting": "[4]", "result": "binds"}]}
{"molecule": "VTQVGF-NH2", "note": "[CsgA segment 137VTQVGF142 (R5 repeat), capped at the C-terminus]", "values": [{"measurement": "binding result", "setting": "[4]", "result": "binds"}]}
{"molecule": "H-IYQYGG-OH", "note": "[CsgA segment 47IYQYGG52 (R1 repeat), unmodified termini]", "values": [{"measurement": "binding result", "setting": "[2]", "result": "binds"}]}
{"molecule": "H-VTQVGF-OH", "note": "[CsgA segment 137VTQVGF142 (R5 repeat), unmodified termini]", "values": [{"measurement": "binding result", "setting": "[2]", "result": "binds"}]}
{"molecule": "H-TASNSS-OH", "note": "[CsgA segment 129TASNSS134 (R4-R5 loop), unmodified termini]", "values": [{"measurement": "binding result", "setting": "[2]", "result": "binds"}]}
